This data set is described as follows: yeast display, Sf9 membrane polyspecificity reagent, FACS + sequencing; frameworks hold sequencing errors. In short, it runs like this: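 Polyreactivity labels are assigned by the sorting gate from which each nanobody was recovered. The gates were low and high (top ~1%), set on anti-HA fluorescence for expression and streptavidin fluorescence for reagent binding. Before sorting, galactose-induced (36–48 hours) yeast display cells were stained for 1 hour at 4 °C with 10% biotinylated, detergent-solubilized Sf9 membrane reagent.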
For the sequence “QVQLVESGGGLVQAGGSLRLSCAASGSIFNYYTMGWYRQAPGKERELVAVITWSDDSTYYADSVKGRFTISRDNAKNTVYLQMNSLKPEDTAVYYCNARSWGWYRIAYGYWGQGTQVTVSS”, the “polyreactivity (PSR sort gate)” value was “low polyreactivity”.

In the case of “QVQLVESGGGLVQAGGSLRLSCAASGSIFPAYDMGWYRQAPGKERELVAAIDRGGSTYYADSVKGRFTISRDNAKNTVYLQMNSLKPEDTAVYYCATDGQEYPNYISSAGFDYWGQGTQVTVSS”, the “polyreactivity (PSR sort gate)” value was “low polyreactivity”.

As to “QVQLVESGGGLVQAGGSLRLSCAASGSIFPDYAMGWYRPAPGKERELVAAIDTSTTDTYYADSVKGRFTISRDNAKNTVYLQMKSQKPEDTAVYYSAADAYDDPYGFWGQGTQVTVSS”, the “polyreactivity (PSR sort gate)” value is reported as “high polyreactivity”.

Regarding “QVQLVESGGGLVQAGGSLRLSCAASGSIFPDYAMGWYRQAPGKERELVAADSVKGRFTISRDNAKNTVYLQMNSLKPEDTAVYYCNKDYIIRRGPIVYYGFDYWGQGNQVTVSS”, the “polyreactivity (PSR sort gate)” value is “low polyreactivity”.

Consider “QVQLVESGGGLVQAGGSLRLSCAASGSIFPDYAMGWYRQAPGKERELVAAITWRDDSTYFADSVKGRFTISRDNAKNTVYLQMNSLKPEDTAVYYCNASALDPLYAKDEYWGQGTQVTVSS”, for which the “polyreactivity (PSR sort gate)” value is given as “low polyreactivity”.

Take “QVQLVESGGGLVQAGGSLRLSCAASGSIFPDYAMGWYRQAPGKERELVAGISSNSGSTYYADSVKGRFTISRDNAKNTVYLQMTSLKPEDTAVYYCAKDSFWRDTGYTDGDYWGQGTQVTVSS”: the “polyreactivity (PSR sort gate)” value is “low polyreactivity”.

With “QVQLVESGGGLVQAGGSLRLSCAASGSIFPGNAMGWYRQEPRKERELVAAITKGDGSTNYADSVKGRFTISRDNAKNTVYLQLNSLITEDTAVYYCADRSRVFGYQGYDYWGQGTQVTVSS”, the “polyreactivity (PSR sort gate)” value is given as “low polyreactivity”.

Regarding “QVQLVESGGGLVQAGGSLRLSCAASGSIFPGYAMGWDRQAPGKERQLVATITWSGGSTYYADSVKGRFTISRDNAKNTVYLQMNSLKPEDTAVYYCIADSNWYYQWNYYGLYDYWGQGTQVTVSS”, the “polyreactivity (PSR sort gate)” value is “low polyreactivity”.

As for “QVQLVESGGGLVQAGGSLRLSCAASGSIFPGYAMGWSRQAPGKERELVATISTGGSTYYADSVKGRFTISRDNAKNTVYLQMNSLKPEDTAVYYCNADIRSYLRYSLRRYDDYDYWGQGTQVTVSS”, the “polyreactivity (PSR sort gate)” value is recorded as “low polyreactivity”.

Take “QVQLVESGGGLVQAGGSLRLSCAASGSIFPGYAMGWYRQAPGKERELVATITWSASETYYADSVKGRFTISRDNAKYTVYLQMNSLKPEDTAVYYCNAEVYELFVVYSALDYWGQGTQVTVSS”: the “polyreactivity (PSR sort gate)” value is “low polyreactivity”.

As for “QVQLVESGGGLVQAGGSLRLSCAASGSIFPGYTMGWYRQAPGKERELVAAISRRGGSTYYADSVKGRITISRDNAKNSVYLQMNSLKPEDTAVYYCAKVPDYRFEYWGQGTQVTVSS”, the “polyreactivity (PSR sort gate)” value was “high polyreactivity”.

Consider “QVQLVESGGGLVQAGGSLRLSCAASGSIFPHNAMGWYRQAPGKERELVAAISVSGGSTYYADSVKGRFTISRDNAKNTVYLQMNSLKPEDTAVYYCATRYGRARAYYYWGQGTQVTVSS”, for which the “polyreactivity (PSR sort gate)” value is “high polyreactivity”.

With “QVQLVESGGGLVQAGGSLRLSCAASGSIFPHYAMGWYRQAPGKERELVAAISRSGTSTYYADSVKGRFTISRDNAKNTVYLQMNSLKPEDTAVYYCAAGYWFSYSRVTRYDYWGQGTQVTVSS”, the “polyreactivity (PSR sort gate)” value is “high polyreactivity”.

Turning to “QVQLVESGGGLVQAGGSLRLSCAASGSIFPLNAMGWYRQAPGKERELVATISWRGGITYYADSVKGRFTISRDNAKNTVYLQMNSLKPEDTAVYYCATVGRWNSLWYRYRYDYWGQGTQVTVSS”, the “polyreactivity (PSR sort gate)” value is on record as “low polyreactivity”.

“QVQLVESGGGLVQAGGSLRLSCAASGSIFPLYAMGWYRQAPGKERELVAAISWSGGSTYYADSVKGRFTISRDNAKNTVYLKMNSLKPEDTAVYYCATLYISTSGYIYEGDYWGQGTQVTVSS”: the “polyreactivity (PSR sort gate)” value is given as “high polyreactivity”.

Take “QVQLVESGGGLVQAGGSLRLSCAASGSIFPPNAMGWDRQAPGKERELVAGISQSGGSTYYAESVKGRFTISRDNAKNTVYLQMNSLKPEDTAVYYCARSFYSGRRYYYWGQGTQVTVSS”: the “polyreactivity (PSR sort gate)” value is on record as “high polyreactivity”.

Regarding “QVQLVESGGGLVQAGGSLRLSCAASGSIFPPYAMGWYRPAPGKERELVAAINSGGSTNYADSVKGRFTISRDNAKNTVYLQMNSLIPEDTAVYYCNVDESYDWRTRKYDSWGQVTQVTVSS”, the “polyreactivity (PSR sort gate)” value was “low polyreactivity”.

“QVQLVESGGGLVQAGGSLRLSCAASGSIFPPYAMGWYRQAPGKERELVAAIRRGSSTYYADSVKGRFTISRDNAKNTVYLQMNSLKPEDTAVYYCAARGRYRIGPGRYGKRYDYWGQGTQVTVSS”: the “polyreactivity (PSR sort gate)” value was “high polyreactivity”.

With “QVQLVESGGGLVQAGGSLRLSCAASGSIFPPYAMGWYRQAPGKERELVATITIRGGSTYYADSVKGRFTISRDNAKNTVYLQMNSLKPEDTAVYYCAADYTKYYRRYYYWGQGTQVTVSS”, the “polyreactivity (PSR sort gate)” value was “high polyreactivity”.

For “QVQLVESGGGLVQAGGSLRLSCAASGSIFPQYAMGWYRQAPGKERELVAAISSSGGRTYYADSVKGRFTISRDNAKNTVYLQMNSLKPEDTAVYYCAADGSYAIGGYGYWGQGTQVTVSS”, the “polyreactivity (PSR sort gate)” value is given as “high polyreactivity”.

“QVQLVESGGGLVQAGGSLRLSCAASGSIFPQYAMGWYRQAPGKERELVAAITRSGGGTHYADSVKGRFTISRDYAKNTVYFQMNSLKPEDTAVYYCAKAGYRSEFEYWGQGTQVTVSS”: the “polyreactivity (PSR sort gate)” value is listed as “low polyreactivity”.

For the sequence “QVQLVESGGGLVQAGGSLRLSCAASGSIFPRNAMGWYRQAPGKERELVAGISSGGSTNYADSVKGRFTISRDNAKNTVYLQMNSLKPEDTAVYYCAARQWIRNLGFGYSIYYYWGLGTQVTVSS”, the “polyreactivity (PSR sort gate)” value was “high polyreactivity”.

As for “QVQLVESGGGLVQAGGSLRLSCAASGSIFPRYAMGWYRQAPGKERELVAAITGSGSSTYYADSVKGRFTISRDNAKNTVYLQMNSLKPEDTAVYYCAARKARPPCPHPFDYYWGEGTQVTVSS”, the “polyreactivity (PSR sort gate)” value is “low polyreactivity”.

For “QVQLVESGGGLVQAGGSLRLSCAASGSIFPRYAMGWYRQAPGKERELVAAITNGGSTDYADSVKGRFTISRDNAKKTVYLLMNSLKPEDTAGYYCAADLAVGIYPEDGDYWGQGTKVTVSS”, the “polyreactivity (PSR sort gate)” value is listed as “low polyreactivity”.

Turning to “QVQLVESGGGLVQAGGSLRLSCAASGSIFPRYFMGWYRQAPGKERELVAAISQSGGSTYYADSVKGRFTISRDNAKNTVYLQMNSLKPEDTAVYYCAAEVRGWRVDYYYWGQGTQVTVSS”, the “polyreactivity (PSR sort gate)” value is “high polyreactivity”.

Turning to “QVQLVESGGGLVQAGGSLRLSCAASGSIFPRYVMGWYRQAPGTARELVAAISGSGGSTYYADSVKGRFTISRDNAKNTVYLQMNSLKPEDTAVYYCNKLRRRVNRDIDDYWGQGTQVTVSS”, the “polyreactivity (PSR sort gate)” value is “high polyreactivity”.

Regarding “QVQLVESGGGLVQAGGSLRLSCAASGSIFPSNAMGWYRQAPGKERELVAAINRDGISNYADSVKGRFTISRDNAKNTVYLQMNSLKPEDTAVYYCAAEFAWQWWEYGYWGQGTQVTVSS”, the “polyreactivity (PSR sort gate)” value is “low polyreactivity”.

“QVQLVESGGGLVQAGGSLRLSCAASGSIFPSYAMGWYRPAPGIERELVAAINWDGGSTFYADSVKGRFTISRDNAKNTVYLQMNSLKPEDTAVYYCAKYTYQEIRNVGRRGHYYWGQGTQVTVSS”: the “polyreactivity (PSR sort gate)” value was “low polyreactivity”.

For the sequence “QVQLVESGGGLVQAGGSLRLSCAASGSIFPSYAMGWYRQAPGKERELVATISGSGTRTYYADSVKGRFTISRDNAKNTVYLQMNILKPEDTAVYYCAADPWLGTGRYDYWGQGTQVTVSS”, the “polyreactivity (PSR sort gate)” value was “low polyreactivity”.

Take “QVQLVESGGGLVQAGGSLRLSCAASGSIFPTYAMGCYRQAPGKERELVAAIRSGSNTYYADSVKGRFTISRDNAKNTVYLQMNSLKPEDTAVYYCNVGPQRKYPGRRTVPFGYWGQGTQVTVSS”: the “polyreactivity (PSR sort gate)” value is on record as “low polyreactivity”.

On to “QVQLVESGGGLVQAGGSLRLSCAASGSIFPVNVMGWYRQAPGKERELVADITSTGTYYADSVKGRFTISRDNAKNTVYLQMNSLKPEDTAVYYCAKAGGSWYRRYYYWGQGTQVTVSS”, for which the “polyreactivity (PSR sort gate)” value is on record as “high polyreactivity”.

Turning to “QVQLVESGGGLVQAGGSLRLSCAASGSIFPVYAMGWYRPAPGKERELVAAISLRAGNTYYADSVKGRFTISRDNAKNTVYLQMNSLKPEDTAVYDCAVELFRSTTIYDYWGQGTLVTVSS”, the “polyreactivity (PSR sort gate)” value was “high polyreactivity”.

On to “QVQLVESGGGLVQAGGSLRLSCAASGSIFPVYAMGWYRQAPGKERELVAAISWIGGGTYYADSVKGRFTISRDNAKNTVYLQMNSLKPEDTAVYYCAAVPYTSEYDYWGQGTKVTVSS”, for which the “polyreactivity (PSR sort gate)” value is “high polyreactivity”.

Regarding “QVQLVESGGGLVQAGGSLRLSCAASGSIFPVYAMGWYRQAPGKERELVATIRSGGARTYYADSVKGRFTISRDNAKNTVYLQMNSLKPEDTAVYYCATRWPHYGGYYYWGQGTQVTVSS”, the “polyreactivity (PSR sort gate)” value was “high polyreactivity”.

Consider “QVQLVESGGGLVQAGGSLRLSCAASGSIFPVYAMGWYRQAPGKQRELVAAITTAGRTYYADSVKGRFTISRDNAKNTVYLQMNSLKPEDTAVYYCNARSRKGLTVDGGYWGQGTQVTVSS”, for which the “polyreactivity (PSR sort gate)” value is given as “high polyreactivity”.

As to “QVQLVESGGGLVQAGGSLRLSCAASGSIFPWYAMGWYRQAPGKEKELVAAIRWRDGRTYYADSVKGRFTISRDNAKNTVYLQMNSLKPEDTAVYYCAAVSTDKYVYGVDVYLYDYWGQGTQVTVSS”, the “polyreactivity (PSR sort gate)” value is “low polyreactivity”.

Consider “QVQLVESGGGLVQAGGSLRLSCAASGSIFPWYAMGWYRQAPGNERELVAAINQIGGGGTNYADSVKGRFTISRDNAKNTVYLQMNSLKPEDTAVYYCAADHVWIRAYRFTKGDDYWGQGTQVTVSS”, for which the “polyreactivity (PSR sort gate)” value is listed as “low polyreactivity”.

As for “QVQLVESGGGLVQAGGSLRLSCAASGSIFPYNAMGWYRPAPGKERELVATISSGGSTNYADSVKGRFTISRDNAMNTVYLQMNIMKPEDTAVYYCAKETIGQDPVSGAWARHEYDYWGQGTQVTVSS”, the “polyreactivity (PSR sort gate)” value was “low polyreactivity”.

Consider “QVQLVESGGGLVQAGGSLRLSCAASGSIFPYNAMGWYRQAPGKERELVAAISKRGGSTYYADSVKGRFTISRDNAKNTVYLQMNSLKPEDTAVYYCAARYPPYRSWYSYDYWGQGTQVTVSS”, for which the “polyreactivity (PSR sort gate)” value is on record as “low polyreactivity”.

As to “QVQLVESGGGLVQAGGSLRLSCAASGSIFPYNVMGWYRQAPGKERELVAAISTRGGRTYYADSVKGRVTISRDNAKNTVYLQMNSLKPEDTAVYDCATAGGPYSASGYYGGQGTQVTVSS”, the “polyreactivity (PSR sort gate)” value is recorded as “high polyreactivity”.

(Values after the nanobody polyreactivity screen of Harvey et al. (2022).)
